Laboratory results as given in publication PMC6085349, “Silkworms suppress the release of green leaf volatiles by mulberry leaves with an enzyme from their spinnerets” (Scientific Reports, 2018).

Substrate: CC/C=C\C[C@@H](/C=C/C=C\CCCCCCCC(=O)O)OO
Experiment: purified protein
Assay type: biochemical, Bombyx mori
Conditions: typical assay 50 mM sodium borate pH 9.0, no cofactor, enzyme inactivates during turnover

B1: BmFHD (Bombyx mori fatty acid hydroperoxide dehydratase) (Bombyx mori) (protein)
chain: GGLRTTWGVGLGLGTDFFYEIPRSLEEVKSQGWVLTDKADGLPLPSLALYCSEDRILCGFFDETEYVVGLQVSLPVDEVTDIIFDMPTQGFIIWETEVDGELKKFYSIQQYFINEDTLKQSVEDRLSKWDSSKTLQEKSIWVTGFNGTLLEISTVADDIANGDDFTKQACVPWMGRHYYYKMSAKTECKADTLLPWFPIVESGELIATGFISFLKLSNTYKWFEKPSKAAVQFIVPDGPKCLYDLAEDSGLTTMHIYYVNQPWLVSCLWQ
notes: native, purified from middle silk glands (MSG-A) of fifth instar larvae; 289 aa precursor with predicted 19-residue N-terminal signal peptide; 32 kDa on SDS-PAGE; no tag
**Q.** For B1, which Km is on record?
**A.** 1.13 µM
